Reference: patent US20080008719A1 (Alexion, published 2008)
Changes are numbered by the printed parent chain. Blank lines part the entries; values can stand above or below the binder they belong to.

Key:
[1] = target: T1, Integrin alpha3/beta1 (human, UniProt P26006 33-1051; P05556 21-798); assay: immunoprecipitation from PC-3 membrane lysate with biotinylated Fab, mass spectrometry
T1 construct: also called α3β1
Procedure: PC-3 cell membranes (10⁸ cell equivalents/mL) in Nonidet P-40 Lysis Buffer (1% Nonidet P-40, 50 mM Tris.HCl pH 7.5, 0.15 M NaCl, 10% glycerol plus Complete Protease Inhibitors) were incubated with 50 μg/mL chicken egg white avidin for 30 min on ice. Insoluble material was removed by centrifugation for 30 min at 150,000 g. The lysate was precleared with normal rabbit serum and protein G Sepharose beads (Amersham-Pharmacia, Piscataway, N.J.). Antigens were captured by adding biotinylated Fabs (10 μg/mL) to the lysate and incubating overnight at 4° C. Immobilized streptavidin was added (50 μL of packed beads per mL) for 3 h at 4° C. with gentle mixing, followed by five washes with Nonidet P-40 Lysis Buffer. After SDS-PAGE separation, antigen bands were cut from the gel.

[2] = target: CUB-domain-containing protein 1 (CDCP1) (human) (UniProt Q9H5V8); assay: flow cytometry on PC-3 cells

T1 sequence (P26006 33-1051 limits assumed, chain 1 of 2): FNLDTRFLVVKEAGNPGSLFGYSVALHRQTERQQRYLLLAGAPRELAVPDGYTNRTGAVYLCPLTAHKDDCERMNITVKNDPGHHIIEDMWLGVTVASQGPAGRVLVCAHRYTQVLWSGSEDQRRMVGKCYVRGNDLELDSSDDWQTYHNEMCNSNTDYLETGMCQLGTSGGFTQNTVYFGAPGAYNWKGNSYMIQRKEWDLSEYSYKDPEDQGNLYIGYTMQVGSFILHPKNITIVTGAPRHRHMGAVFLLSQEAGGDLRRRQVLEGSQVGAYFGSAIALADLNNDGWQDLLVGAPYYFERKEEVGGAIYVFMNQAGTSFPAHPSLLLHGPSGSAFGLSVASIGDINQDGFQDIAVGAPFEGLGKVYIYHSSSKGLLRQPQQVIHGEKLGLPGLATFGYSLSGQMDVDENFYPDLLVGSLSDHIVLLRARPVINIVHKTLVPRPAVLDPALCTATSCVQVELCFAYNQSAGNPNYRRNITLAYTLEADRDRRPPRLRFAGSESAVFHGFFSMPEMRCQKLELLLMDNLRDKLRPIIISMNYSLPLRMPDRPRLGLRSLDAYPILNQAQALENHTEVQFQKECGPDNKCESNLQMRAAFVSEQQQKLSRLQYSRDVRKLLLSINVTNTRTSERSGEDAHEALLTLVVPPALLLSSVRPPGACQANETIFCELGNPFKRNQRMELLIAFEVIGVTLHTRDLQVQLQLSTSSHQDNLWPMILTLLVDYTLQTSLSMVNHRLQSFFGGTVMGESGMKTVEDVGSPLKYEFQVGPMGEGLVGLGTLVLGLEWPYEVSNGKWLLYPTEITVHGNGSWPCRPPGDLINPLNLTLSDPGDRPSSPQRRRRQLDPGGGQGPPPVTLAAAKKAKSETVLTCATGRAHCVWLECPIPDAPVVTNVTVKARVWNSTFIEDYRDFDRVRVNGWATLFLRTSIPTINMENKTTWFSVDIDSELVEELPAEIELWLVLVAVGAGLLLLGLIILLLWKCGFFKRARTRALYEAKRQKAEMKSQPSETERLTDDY
T1 sequence (P05556 21-798 limits assumed, chain 2 of 2): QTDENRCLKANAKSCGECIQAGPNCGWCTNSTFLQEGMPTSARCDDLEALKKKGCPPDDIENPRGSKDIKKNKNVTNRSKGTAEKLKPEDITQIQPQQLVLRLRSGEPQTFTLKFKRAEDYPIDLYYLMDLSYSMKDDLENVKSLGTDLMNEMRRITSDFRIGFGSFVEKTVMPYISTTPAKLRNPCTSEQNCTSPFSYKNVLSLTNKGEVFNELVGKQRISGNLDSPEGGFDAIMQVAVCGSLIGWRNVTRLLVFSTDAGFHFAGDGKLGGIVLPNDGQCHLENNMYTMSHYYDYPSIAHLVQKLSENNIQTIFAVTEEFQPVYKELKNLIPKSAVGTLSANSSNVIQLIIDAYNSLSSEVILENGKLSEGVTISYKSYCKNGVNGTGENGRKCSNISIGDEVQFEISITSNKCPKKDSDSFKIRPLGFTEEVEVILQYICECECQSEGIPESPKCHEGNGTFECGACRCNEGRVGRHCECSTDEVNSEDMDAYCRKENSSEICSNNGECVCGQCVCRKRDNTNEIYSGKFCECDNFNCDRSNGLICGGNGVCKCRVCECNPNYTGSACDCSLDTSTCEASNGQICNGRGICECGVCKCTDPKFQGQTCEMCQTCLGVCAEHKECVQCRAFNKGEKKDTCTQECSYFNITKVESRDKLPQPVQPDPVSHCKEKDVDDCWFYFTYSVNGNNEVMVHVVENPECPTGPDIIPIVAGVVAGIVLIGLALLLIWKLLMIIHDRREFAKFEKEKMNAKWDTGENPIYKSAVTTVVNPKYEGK

binding result [1]: binds
B1: Fab 23E9 (Fab, V domains shown)
VH: EVELQQSGAELVKPGASVKLSCKASGYTFTNYYMHWVKQRPGQGLEWIGEINPSSGGTNFNEKFKSKATLTVDKSSSTAYMQLSSLTSEDSAVYYCTRFDRTENGMDYWGQGTSVTVSS
VL: DNVLTQSPASLAVSPGQRATISCKASQSVDYDGDNYMNWYQQKPGQPPKLLIYAASNLESGIPARFSGSGSGTDFTLNIHPVEEEDAATYFCQQSDEDPYTFGGGTKLEIKR

binding result [1]: binds
B2: Fab 61E10 (Fab, V domains shown)
VH: B1 VH with E3Q, M106L
VL: B1 VL with N2I, L4M, P15L, F91Y, D96N, E97G, Y100W

percent saturation of PC-3 cells at 160 nM Fab [2]: 80%
B3: Fab 25A11 (murine Fab) (Fab, V domains shown)
VH: EVQLQQPGAELVKPGASVKMSCKASGYTFTSYYMYWVKQRPGQGLEWIGEINPSHGGTNFNEKFKNKATLTVDKSSSTVYMQLSSLTSEDSAVYYCTRGGNYPYFAMDYWGQGTSVTVSS
VL: DIQMTQTTSSLSASLGDRVTISCRASQDISNYLNWYQQKPDGTVKLLIYYTSRLHSGVPSRFSGSGSGTDYSLTISNLEQEDIATYFCQQGNTLPWTFGGGTKLEIKR

binding result [1]: binds
B4: Fab 84H7 (Fab, V domains shown)
VH: EVQLQQSGAVLLKPGASVKLSCTASGFNIKDTYIHWMKQRPEQGLEWIGRIDPADGNTKYDPKFQGKATITADTSSNTAYLQLSSLTSEDTAVYYCTTAFYYSMDYWGQGTSVTVSS
VL: DIVLTQSQKFMSTSVGDRVSVTCKASQNVGTNVAWYQQKPGQSPKALIYSASYRYSGVPDRFTGSGSGTDFTLTISNVQSEDLAEYFCQQYNSYPRTFGGGTKLEIKR
notes: also called 84H7 (63C10)

binding result [1]: binds
B5: Fab 36C1 (Fab, V domains shown)
VH: B4 VH with V10E, L12V, K38N, G66D, Q82H
VL: B4 VL with L4M, K39T, S76N, K103T
